{"source": "patent US20130289246A1", "assay_in_all_cases": "cell-based or functional assay", "key": {"[1]": {"biological_target": "HA of A/Hong Kong/1/1968 (H3N2) virus (Influenza A virus (H3N2)) (UniProt Q91MA7)"}, "[2]": {"biological_target": "HA of A/Alabama/1/1981 (H3N2) virus (Influenza A virus (H3N2))"}, "[3]": {"biological_target": "HA of A/Vietnam/1203/2004 (H5N1) virus (Influenza A virus (H5N1))"}, "[4]": {"biological_target": "HA of A/California/04/2009 (H1N1) virus (Influenza A virus (H1N1))"}}, "data": [{"substance": "murine hybridoma mAb S139/1 (antibody)", "values": [{"measurement": "HAI activity", "setting": "[1]", "value": "< 0.2", "unit": "µg/mL"}, {"measurement": "HAI activity", "setting": "[2]", "value": "> 50", "unit": "µg/mL"}, {"measurement": "HAI activity", "setting": "[3]", "value": "> 50", "unit": "µg/mL"}, {"measurement": "HAI activity", "setting": "[4]", "value": "> 50", "unit": "µg/mL"}]}]}
